To fix the notation:
B1: Zinc finger homeobox protein 3, residues 2643 to 2698; numbered along this chain, Q15911 (parent)
chain: RLRTTITPEQLEILYQKYLLDSNPTRKMLDHIAHEVGLKKRVVQVWFQNTRARERK

Our source for the abundance fitness values is the Human Domainome abundance scans (Beltran et al. 2025).

± gives the uncertainty stated by the source.

Variants of B1 are the subject of the series. Description: abundance fitness (aPCA) (normalised: wild type 0, dead -1); higher = more abundant; growth selection in yeast, the domain comes from the species named. The settings on record: Homo sapiens.
In the case of RLRTTITPEQLEILYQKYLLDSNPTRKMLDHIAHEVGLKKRVVQVWFQNARARERK, the abundance fitness was 0.056 ± 0.086. The same measure for RLRTTITPEQLEILYQKYLLDSNPTRKMLDHIAHEVGLKKRVVQVWFQNMRARERK: 0.092 ± 0.13; for RLRTTITPEQLEILYQKYLLDSNPTRKMLDHIAHEVGLKKRVVQVWFQNKRARERK: -0.091 ± 0.13; for RLRTTITPEQLEILYQKYLLDSNPTRKMLDHIAHEVGLKKRVVQVWFQNHRARERK: -0.11 ± 0.17. Turning to RLRTTITPEQLEILYQKYLLDSNPTRKMLDHIAHEVGLKKRVVQVQFQNTRARERK, the abundance fitness was -0.829 ± 0.16. The same measure for RLRTTITPEQLEILYQKYLLDSNPTRKMLDHIAHEVGLKKRVVQVPFQNTRARERK: -0.891 ± 0.17.

On to RLRTTITPEQLEILYQKYLLDSNPTRKMLDHIAHEVGLKKRVVQVYFQNTRARERK, for which the abundance fitness was -0.261 ± 0.34. The result for RLRTTITPEQLEILYQKYLLDSNPTRKMLDHIAHEVGLKKRVVQVTFQNTRARERK reads -0.865 ± 0.22; that for RLRTTITPEQLEILYQKYLLDSNPTRKMLDHIAHEVGLKKRVVQVSFQNTRARERK, -0.867 ± 0.14; that for RLRTTITPEQLEILYQKYLLDSNPTRKMLDHIAHEVGLKKRVVQVNFQNTRARERK, -0.902 ± 0.37. As to RLRTTITPEQLEILYQKYLLDSNPTRKMLDHIAHEVGLKKRVVQVMFQNTRARERK, the abundance fitness was -0.956 ± 0.2. The same measure for RLRTTITPEQLEILYQKYLLDSNPTRKMLDHIAHEVGLKKRVVQVRFQNTRARERK: -0.678 ± 0.094; for RLRTTITPEQLEILYQKYLLDSNPTRKMLDHIAHEVGLKKRVVQVWKQNTRARERK: -0.812 ± 0.21. The result for RLRTTITPEQLEILYQKYLLDSNPTRKMLDHIAHEVGLKKRVVQVWLQNTRARERK reads -0.639 ± 0.098.

With RLRTTITPEQLEILYQKYLLDSNPTRKMLDHIAHEVGLKKRVVQVWMQNTRARERK, the abundance fitness is -0.522 ± 0.13. Regarding RLRTTITPEQLEILYQKYLLDSNPTRKMLDHIAHEVGLKKRVVQVWRQNTRARERK, the abundance fitness is -0.757 ± 0.095.

With RLRTTITPEQLEILYQKYLLDSNPTRKMLDHIAHEVGLKKRVVQVWQQNTRARERK, the abundance fitness was -0.887 ± 0.16.

On to RLRTTITPEQLEILYQKYLLDSNPTRKMLDHIAHEVGLKKRVVQVWWQNTRARERK, for which the abundance fitness was -0.106 ± 0.095. The same measure for RLRTTITPEQLEILYQKYLLDSNPTRKMLDHIAHEVGLKKRVVQVWDQNTRARERK: -0.833 ± 0.23; for RLRTTITPEQLEILYQKYLLDSNPTRKMLDHIAHEVGLKKRVVQVWTQNTRARERK: -0.997 ± 0.19; for RLRTTITPEQLEILYQKYLLDSNPTRKMLDHIAHEVGLKKRVVQVWIQNTRARERK: -1.01 ± 0.25. The same measure for RLRTTITPEQLEILYQKYLLDSNPTRKMLDHIAHEVGLKKRVVQVWPQNTRARERK: -1.04 ± 0.21; for RLRTTITPEQLEILYQKYLLDSNPTRKMLDHIAHEVGLKKRVVQVWSQNTRARERK: -0.946 ± 0.14. On to RLRTTITPEQLEILYQKYLLDSNPTRKMLDHIAHEVGLKKRVVQVWCQNTRARERK, for which the abundance fitness is -0.945 ± 0.17. The same measure for RLRTTITPEQLEILYQKYLLDSNPTRKMLDHIAHEVGLKKRVVQVWHQNTRARERK: -1.09 ± 0.32; for RLRTTITPEQLEILYQKYLLDSNPTRKMLDHIAHEVGLKKRVVQVWVQNTRARERK: -0.902 ± 0.14; for RLRTTITPEQLEILYQKYLLDSNPTRKMLDHIAHEVGLKKRVVQVWAQNTRARERK: -0.904 ± 0.12.

In the case of RLRTTITPEQLEILYQKYLLDSNPTRKMLDHIAHEVGLKKRVVQVWYQNTRARERK, the abundance fitness is -0.388 ± 0.22. With RLRTTITPEQLEILYQKYLLDSNPTRKMLDHIAHEVGLKKRVVQVWNQNTRARERK, the abundance fitness is -0.835 ± 0.27. The same measure for RLRTTITPEQLEILYQKYLLDSNPTRKMLDHIAHEVGLKKRVVQVWEQNTRARERK: -0.736 ± 0.15; for RLRTTITPEQLEILYQKYLLDSNPTRKMLDHIAHEVGLKKRVVQVWFNNTRARERK: -0.21 ± 0.23. The result for RLRTTITPEQLEILYQKYLLDSNPTRKMLDHIAHEVGLKKRVVQVWFHNTRARERK reads -0.108 ± 0.2; that for RLRTTITPEQLEILYQKYLLDSNPTRKMLDHIAHEVGLKKRVVQVWFWNTRARERK, -0.217 ± 0.091; that for RLRTTITPEQLEILYQKYLLDSNPTRKMLDHIAHEVGLKKRVVQVWFPNTRARERK, -0.615 ± 0.15. Turning to RLRTTITPEQLEILYQKYLLDSNPTRKMLDHIAHEVGLKKRVVQVWFKNTRARERK, the abundance fitness was 0.096 ± 0.13. On to RLRTTITPEQLEILYQKYLLDSNPTRKMLDHIAHEVGLKKRVVQVWFANTRARERK, for which the abundance fitness amounted to 0.122 ± 0.12. Turning to RLRTTITPEQLEILYQKYLLDSNPTRKMLDHIAHEVGLKKRVVQVWFVNTRARERK, the abundance fitness was -0.147 ± 0.1. The same measure for RLRTTITPEQLEILYQKYLLDSNPTRKMLDHIAHEVGLKKRVVQVWFINTRARERK: -0.687 ± 0.32. Take RLRTTITPEQLEILYQKYLLDSNPTRKMLDHIAHEVGLKKRVVQVWFTNTRARERK: the abundance fitness was 0.028 ± 0.15. For the variant RLRTTITPEQLEILYQKYLLDSNPTRKMLDHIAHEVGLKKRVVQVWFRNTRARERK, the abundance fitness was -0.204 ± 0.078. The result for RLRTTITPEQLEILYQKYLLDSNPTRKMLDHIAHEVGLKKRVVQVWFCNTRARERK reads -0.189 ± 0.14; that for RLRTTITPEQLEILYQKYLLDSNPTRKMLDHIAHEVGLKKRVVQVWFYNTRARERK, -0.089 ± 0.21. Take RLRTTITPEQLEILYQKYLLDSNPTRKMLDHIAHEVGLKKRVVQVWFENTRARERK: the abundance fitness amounted to 0.404 ± 0.12. Consider RLRTTITPEQLEILYQKYLLDSNPTRKMLDHIAHEVGLKKRVVQVWFGNTRARERK, for which the abundance fitness is -0.164 ± 0.075. The same measure for RLRTTITPEQLEILYQKYLLDSNPTRKMLDHIAHEVGLKKRVVQVWFLNTRARERK: -0.268 ± 0.11. The result for RLRTTITPEQLEILYQKYLLDSNPTRKMLDHIAHEVGLKKRVVQVWFDNTRARERK reads 0.505 ± 0.2; that for RLRTTITPEQLEILYQKYLLDSNPTRKMLDHIAHEVGLKKRVVQVWFFNTRARERK, -0.802 ± 0.24.
